Like-named read-outs stand apart in the source and are kept apart here.
Columns and labels:
[1] = molecular target: AuraA, dimethylallyl tryptophan synthase (DMATS) family prenyltransferase (Penicillium solitum HDN11-131); test: cryo-EM structure
[2] = molecular target: AuraA, dimethylallyl tryptophan synthase (DMATS) family prenyltransferase (Penicillium solitum HDN11-131)

AuraA, dimethylallyl tryptophan synthase (DMATS) family prenyltransferase (enzyme)
stoichiometry N [1]: 4
stoichiometry N [2]: 4
